Kd data for three molecules are collected here from paper doi:10.1101/2023.01.25.525455 (bioRxiv, 2023).

“And” between values parts separate entries of the source, which are not always exact repeats. Equal values may be shown once.

One assay concerns the target purified VPS29 (human, UniProt Q9UBQ0 1-182). As to the kind of experiment: ITC. (Isothermal titration calorimetry measures the heat released or taken up as one component is titrated into another.)
A further assay addresses recombinant DENND10 (human, UniProt Q8TCE6 1-357). Kind of assay: ITC.

recombinant DENND10, sequence (Q8TCE6 whole entry): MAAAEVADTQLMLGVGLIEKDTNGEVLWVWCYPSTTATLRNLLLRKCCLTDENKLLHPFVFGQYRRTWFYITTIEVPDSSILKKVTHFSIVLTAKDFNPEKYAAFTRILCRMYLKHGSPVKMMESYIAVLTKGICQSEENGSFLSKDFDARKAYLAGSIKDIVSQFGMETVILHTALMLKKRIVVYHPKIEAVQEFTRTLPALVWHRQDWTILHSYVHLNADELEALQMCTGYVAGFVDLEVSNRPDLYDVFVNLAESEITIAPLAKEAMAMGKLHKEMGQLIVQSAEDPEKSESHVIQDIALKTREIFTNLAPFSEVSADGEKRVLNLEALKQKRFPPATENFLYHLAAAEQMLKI

For EFASCRLEAVPLEFGDYHPLKPI [synthetic VPS35L peptide (residues Glu16-Ile38)], the equilibrium dissociation constant (Kd) with purified VPS29 was 1800 nM and 1870 nM.
The molecule EFGDYHPLKP [VPS35L^28-37 peptide] came in with a Kd in the assay with purified VPS29 of 6800 nM.

B1: CCDC22-CCDC93 CC1-CC2 complex (CCDC22(325-485) + CCDC93(310-488)), wild type (complex)
chain 1: VTWAAQEQELESLREQLEGVNRSIEEVEADMKTLGVSFVQAESECRHSKLSTAEREQALRLKSRAVELLPDGTANLAKLQLVVENSAQRVIHLAGQWEKHRVPLLAEYRHLRKLQDCRELESSRRLAEIQELHQSVRAAAEEARRKEEVYKQLMSELETLP
chain 2: GTSQLHRRKVISLNKQIAQKTKHLEELRASHTSLQARYNEAKKTLTELKTYSEKLDKEQAALEKIESKADPSILQNLRALVAMNENLKSQEQEFKAHCREEMTRLQQEIENLKAERAPRGDEKTLSSGEPPGTLTSAMTHDEDLDRRYNMEKEKLYKIRLLQARRNREIAILHRKIDEV
B1: the Kd with recombinant DENND10 was found to be 28 ± 6 nM.

Usually Kd stands for the constant that tells how readily two partners part at equilibrium.
